System: RAD51 wild type (Homo sapiens)
Assay: EMSA
Details: 1 mM ATP, 2 mM Ca2+; saturated at 0.8 uM; EMSA: 50 mM Tris-HCl pH 7.5, 100 mM NaCl, 2 mM CaCl2, 1 mM ATP, 1 mM DTT, 5 nM DNA, 5 min at 37 C; 0.8% agarose in 1x TB (dsDNA) or 5% native PAGE in 0.5x TB …

Q: For ds-66 bp-AF532, which K half is on record?
A: Its K half is 300 nM.

Reference: PMC4703882
